Experiment: yeast display, Sf9 membrane polyspecificity reagent, FACS + sequencing; frameworks hold sequencing errors
Procedure, shortened: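 Galactose induction of a Saccharomyces cerevisiae BJ5465 synthetic nanobody display library ran 36–48 hours. The cells were then stained for 1 hour at 4 °C with 10% biotinylated, detergent-solubilized Sf9 membrane reagent, pulled down on streptavidin microbeads and FACS-sorted into low and high (top ~1%) gates on expression and reagent-binding fluorescence. Labels for polyreactivity follow the gate of origin.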

| Sequence | polyreactivity (PSR sort gate) |
| --- | --- |
| QVQLVESGGGLVQAGGSLRLSCAASGRIFYYYAMGWYRQAPGKERELVAASSTYYADSVKGRFTISRDNAKNTVYLQMNSQKPEDTAVYYCAAVTFSYDGYDYWGPGTQVTVSS | low polyreactivity |
| QVQLVESGGGLVQAGGSLRLICAASGSIFAVNAMGWYRQAPGKERELVAAISRRGGSTYYADSVKGRFTISRDNAKITDYLQMNSLKPEDTAVYYCAKRWKATRARYDYWGQGTQVTVAS | high polyreactivity |
| QGQLVESGGGLVQAGGSLRLSCAASGSISGNYAMAWYRQAPGKERELVASIRYTGARTYYADSVKWRFTISRDNAKNTVYLQMNSLKPEDTAVYYCAADVKRDRVWGGDYWGQGTQVTVSS | low polyreactivity |
| QVQLVESGGGLVQAGGSLRLICAASGITFYRYDMGWYRQAPGKERELVAAISTRGGSTYYADSVKGRFTISRDNAKNTVYLQMNSLKPEDTAVYYCAKERVGTSLPFKDYYWGQGTQVTVSS | low polyreactivity |
| QVQLVESGGGLVQAGGSLRLSCAASGRTFSYYTMGWSRQAPGKERELVAAISWSGGNTYYADSVKGRFTISRDNAKNTVYLQMNSLKPEDTAVYYCAARSVYGSYSGYDYWGQGTQVTVSS | high polyreactivity |
| QVQLVESGGGLVQAGGSHRLSCAASGSIFRQNAMGWYRQAPGKERELVAAITRGGGGTTYYADSVKGRFTISRDNAKNTVYLQMNSLKPEDTAVYYCAKAYEVRVEVDYWGQGTQVTVSS | low polyreactivity |
| QVQLVESGGGLVQAGGSLRLSCAASGFTFRRYVMGWYRQAPGKERELVAAISQSGGSTYYADSVKGRFTISRDNAKNTVYLQMYSLKPEDTAVYYCAAVTSRYVLSTFYYWGQGTQVTVSS | high polyreactivity |
| QVQLVESGGGLVQAGGSLRLSCAASGSTFGVNVMGWYRQAPGKERELVAAISRSGGRTYYADSVKGRFTISRDNAKNTVYLQMNSLKPEDTAVYYCNTRGYDYWGQGTQVTVSS | high polyreactivity |
| QVQLVESGGGLVQAGGSLRLRCAASGRIFRLYAMGWYRQAPGKERELVAAIRSSGGSTYADSVKGRFTISRDNAKNTVYLHMNSLKPEDTAVYYCAARWGRLPEQYRYDYWGQGTQVTVSS | high polyreactivity |
| QVQLVESGGGLVQAGGSLRLSCAASGSIFGPNAMGWYRQAPGKERELVAAITLSGGSTYYADSVKGRFTISRDNAKNTVYLQMNSLKPEDTAVYYCNADLLPADAPLWVTGGDYWGQGTQVTVSS | low polyreactivity |
| QVQLVESGAGLVQAGGSLRLSCAPSGRIFTPYAMGWYRQAPGKERELVAVIRDGSTYYADSVKGRFTISRDNSKNTVYLQMNSLKPEDTAVYYCRYDIWVWWSGAYDYWGQGTQVTVSS | low polyreactivity |
| QVQLVESGGGLVQAGGSLRLSCAASGSIFWRNAIGWYRQAPRKERELVAAISRVGSTNYADSVKGRFTISRDNAKNTVYLQMTSLKPEDTAVYYCAKDSIWRVYEYDYWGQGTQVTVSS | low polyreactivity |
| QVQLVESGGGLVQAGGSLRLSCAASGSIFRYNAMGWYRQAPGKERELVAAITRSGGRTYYADSVKGRFTISRDNAKNTVYLQMNSLKPEDTAVYYCAAKGYTYGLTYDYWGQGTQVTVSS | high polyreactivity |
| QVQLVESGGGLVQAGGSLRVSCAASGFIFSYNAMGWYRQEPGKERELVAAMSSGGGSTYYADSVKGRFTISRDNAKNTVYLQMNSLKPEDTAVSYCAARVAYTFGYWGQGTQVTVSS | high polyreactivity |
| QVQLVESGGGLVQAGGSLRLSCAASGSIFSLYAMGWYRQAPGKERELVAAITWTGGSTYYADSVKGRFTISRDNAKNTVYLQMNSLKPEDTAVYYCDARRVVYRYYWYSAYDYWGRGTQVTVSS | high polyreactivity |
| QVQLVESGGGLVQAGCSLRLSCDASGSIYKYYSMGWYRQAPGKERELVAAISKNGGSTYYADSVKGRFTISRDNAKYTVYLQMNSLKPEDTAVYYCAAEEGYRWVRYNYWGQGTQVTVSS | high polyreactivity |

| Sequence | polyreactivity (PSR sort gate) |
| --- | --- |
| QVQLVESGGCLVQAGGTLRLSCAASGFIFYHNAMGWYRQAPGKERELVAAISGSGGSTHYADSVKGRFTISRDNAKNSVYLQMNSLKPEDTAVYYCARRFWFHYYGYDYWGQGSQVTVSS | high polyreactivity |
| QVQLVESGGGLVQAGGSLRLSCAASGRIFGGNAMGWYRQAAGKERELVAGITGSGGSTYYADSVKGRFTISRDNAKNTVYLQMISLKPEDTAVYYCAAGYTYYYPSSGFDYWGQGTQVTVSS | low polyreactivity |
| QVQLVESGGGLVQAGGSLRLSCAASGFTFYHYAMGWYRQAPGTERELVASITRSGASTYYADSVKGRFTSSRDNAKNTVYLQMNSLKPEDTAVYYCNKVRYTSSIWTYYYWGQGTQVTVSS | high polyreactivity |
| QVQLVESGGGLVQAGGSLRLSCAASGFIFLLNAMGWYRQAPGKEREFVAAISWGGGSTYYADSVKGRFTISRDNAKNTVYLQMNSLKPEDTAVYYCAAKPGKTPLTGHRGPYDTGYGYWGQGTQVTVSS | low polyreactivity |
| QVQLVESGGGLVQAGGSLRLSCAASGRIFKPNAMGGSRQAPGKEREFVARITRNTGSTYYADSVKGRFTISRDNAKNTVYLQMNSLKPEDTAVYYCAARFYRRNRFNYWGQGTLVTVSS | high polyreactivity |
| QVQLVESGGGILQAGGSLRLSCAASGITFVVYAMGCYRQAPGKERELVDSITYSGGSTYYADSVKGRFTISRDNAKNTVYLQMISLKPEDTAFYYCNADGYSIYYLPYSDYDAYDYWGQGTQVTVSS | low polyreactivity |
| QVQLVESGGGLVQAGGSLRLSCAASGSTFSHYTMGSYRQAAGKERELVAAITRSGGSTYYADSVKGRFTISRDNAKNTVYLQMNSLKTEDSAVYYSAATRHWNILRYDYWGQGTQVTVSS | low polyreactivity |
| QVQLVESGGGLVQAGGSLRLSCAASGSIFFSNDMGWYRQAPGKERELVASITRDGTSTYADSVKGRFTISRDNAKNTVYLQMNSLKPEETAVYYCAADRYLQGFYGRWHGYDSWGQGTQVTVSS | low polyreactivity |
| QVQLVESGGGLVQAGGSLRLSCAASGGTFGYYAMGWYRQAPGKERELVAAITSGGSTNYADSVKGRFTISRDNAKNTVYLQMNSLKPEDTAVYYCAARYINRYPKAQPTDRSIYYWGQGTQVTVSS | high polyreactivity |
| QVQLVESGGGLVQAGGSLRLSCAASGFTFGTYNMGWSRQAPGKERELVASISRRGGRTDYADSVKGRFTISRHNAKNTVYLQMNSLKPEDTAVYYCNAAYPYGGFPYDYWGQGTQVTVSS | high polyreactivity |
| QVHLVESGGGLVQAGGSLRLSCAASGRIIWNYAMGWYRQAPGKERELVASINRSGGTTYYADSVKGRFTISRDNAKNTVYLQMNSLKPEDTAVYYCNTVYYGNFYSTRYDYWGQGTQVTVSS | high polyreactivity |
| QVQLVESGGGLVQAGGSLRLSCAASGRILPRNAMGWYRQAPGKERELVAAISWDGGSTYYADSVKGRFTISRDNAKNTVYLPMIRLKPEDTAVYYCATDYPSLHRGMDYWGQGTQVTVSS | low polyreactivity |
| QVQLVESGGGLVQAGGSLRLSCAASGLTFAYYVMGWYRQAPGKERELVATITRGGDTYYADSVKGRFTISRDNAKITVYLQMYSLKPEDTAVYYCNAYLRSGSMDYWGQGTQVTVSS | high polyreactivity |
| QVQLVESGGGIVQAGVSLRLSCAASGSTFWDNDMGWYRPAPGKERELVAVISWDDGSTYYADSVKGRFTISRDNAKNTVYLQMNSLKPEDTAVYYCAADAYYALFPSWTVGDCPYYYWGQGTQVTVSS | high polyreactivity |
| QVQLVESGGGLVQAGGSLRLSCAASGSIFYYYAMGWYRQAPGKERELVAAITYDAGSTYYADSVKGRFTISRDNAKNTVYLQMNSLKPEDTAVYYCATDGIYHWGVYTPYDYWGQGTQVTVSS | low polyreactivity |

— the nanobody polyreactivity screen of Harvey et al. (2022)
